Here are results for 1 molecule from article doi:10.1101/732289 (bioRxiv, 2020).

This assay addresses human KIX domain of CBP with saturating DUX4 9aaTAD peptide (human, UniProt Q92793;Q9UBX2). Description: MST.

human KIX domain of CBP with saturating DUX4 9aaTAD peptide, sequence (Q92793 587-673, one chain of several): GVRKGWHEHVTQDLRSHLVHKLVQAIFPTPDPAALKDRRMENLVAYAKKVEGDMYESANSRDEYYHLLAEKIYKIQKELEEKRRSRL

By Kd is commonly meant the concentration at which binding is half-saturated. With EEEYRALLEE [DUX4 KBM peptide (E414-E423)], the Kd was roughly 1100 nM.
